Here are results for 1 substance from patent US20110269680A1, “GLP-1 ANALOGS AND USES THEREOF” (PANACEA BIOTEC LIMITED, priority 2008, published 2011).

The experiment has as its target GLP-1 receptor. Put plainly: cell-based or functional assay.

In the case of “GLP-1(7-37) parent (from UniProt P01275 98-128) (peptide)”, the EC50, Receptor Functional assay (intracellular cAMP in CHO/GLP-1R cells) worked out at 50.3 pM.
